# B1: mAOX3 (Mus musculus) (protein)
# chain: MSPSKESDELIFFVNGKKVTERNADPEVNLLFYLRKVIRLTGTKYGCGGGDCGACTVMISRYDPISKRISHFSATACLVPICSLHGAAVTTVEGIGSTKTRIHPVQERIAKGHGTQCGFCTPGMVMSIYTLLRNHPEPSTEQIMETLGGNLCRCTGYRPIVESAKSFCPSSTCCQMNGEGKCCLDEEKNEPERKNSVCTKLYEKKEFQPLDPTQELIFPPELMRMAEESQNTVLTFRGERTTWIAPGTLNDLLELKMKHPSAPLVIGNTYLGLHMKFTDVSYPIIISPARILELFVVTNTKQGLTLGAGLSLTQVKNVLSDVVSRLPKEKTQIYCALLKQLKTLAGQQIRNVASLGGHIISRLPTSDLNPILGIGNCILNVASTEGIQQIPLNDHFLAGVPDAILKPEQVLISVFVPRSSKWEFVSAFRQAPRQQNAFATVNAGMKVVFKEDTNTITDLGILYGGIGATVISADKSCRQLIGRCWDEEMLDDAGKMICEEVSLLMAAPGGMEEYRKTLAISFLFMFYLDVLKQLKTRDPHKYPDISQKLLHILEDFPLTMPYGMQSFQDVDFQQPLQDPIGRPIMHQSGIKHATGEAVFCDDMSVLPGELFLAVVTSSKSHAKIISLDASEALASLGVVDVVTARDVPGDNGREEESLYAQDEVICVGQIVCAVAADSYAHAQQAAKKVKIVYQDIEPMIVTVQDALQYESFIGPERKLEQGNVEEAFQCADQILEGEVHLGGQEHFYMETQSVRVVPKGEDKEMDIYVSSQDAAFTQEMVARTLGIPKNRINCHVKRVGGAFGGKASKPGLLASVAAVAAQKTGRPIRFILERRDDMLITGGRHPLLGKYKIGFMNNGKIKAADIQLYINGGCTPDDSELVIEYALLKLENAYKIPNLRVRGRVCKTNLPSNTAFRGFGFPQGAFVTETCMSAVAAKCRLPPEKVRELNMYRTIDRTIHNQEFDPTNLLQCWEACVENSSYYNRKKAVDEFNQQRFWKKRGIAIIPMKFSVGFPKTFYYQAAALVQIYTDGSVLVAHGGVELGQGINTKMIQVASRELKIPMSYIHLDEMSTVTVPNTVTTGASTGADVNGRAVQNACQILMKRLEPIIKQNPSGTWEEWVKEAFVQSISLSATGYFRGYQADMDWEKGEGDIFPYFVFGAACSEVEIDCLTGAHKNIRTDIVMDGSFSINPAVDIGQIEGAFVQGLGLYTLEELKYSPEGVLYTRGPHQYKIASVTDIPEEFHVSLLTPTPNPKAIYSSKGLGEAGTFLGCSVFFAIAAAVAAAREERGLSPIWAINSPATAEVIRMACEDQFTNLVPQTDSKCCKPWSIPVA
# notes: recombinant from E. coli TP1000 (plasmid pMMA1), Ni-NTA and Superdex 200 purified, chemically sulfurated, dimer (300 kDa)
# B2: mAOX1 (Mus musculus) (protein)
# chain: MDPIQLLFYVNGQKVVEKNVDPEMMLLPYLRKNLRLTGTKYGCGGGGCGACTVMISRYNPSTKAIRHHPVNACLTPICSLHGTAVTTVEGLGNTRTRLHPIQERIAKCHGTQCGFCTPGMVMSMYALLRNHPEPTLDQLTDALGGNLCRCTGYRPIIDACKTFCKASACCQSKENGVCCLDQEINGLAESQEEDKTSPELFSEEEFLPLDPTQELIFPPELMRIAEKQPPKTRVFYGERVTWISPVTLKELVEAKFKYPQAPIVMGYTSVGPEVKFKGVFHPIIISPDRIEELGVISQARDGLTLGAGLSLDQVKDILADIVQKLPEEKTQTYRALLKHLRTLAGSQIRNMASLGGHIVSRHLDSDLNPLLAVGNCTLNLLSKDGERRIPLSEEFLRKCPEADLKPQEVLVSVNIPWSRKWEFVSAFRQAQRQQNALAIVNSGMRVLFREGGGVIEELSILYGGVGSTIISAKNSCQRLIGRPWNEGMLDTRCRLVLDEVTLAASAPGGKVEFKRTLIISFLFKFYLEVSQGLKREDPGHSPSLAGNHESALDDLHSKHPWRTLTHQNVDPAQLPQDPIGRPIMHLSGIKHATGEAIYCDDMPAVDRELFLTFVTSSRAHAKIVSIDLSEALSLPGVVDIITADHLQEANTFGTETFLATDEVHCVGHLVCAVIADSETRAKQAAKQVKVVYQDLAPLILTIEEAIQHKSFFKSERKLECGNVDEAFKIVDQILEGEIHIGGQEHFYMETQSMLVVPKGEDGEIDIYVSTQFPKYIQDIVAATLKLSANKVMCHVRRVGGAFGGKVGKTSILAAITAFAASKHGRAVRCILERGEDMLITGGRHPYLGKYKAGFMNEGRILALDVEHYCNGGCSLDESLWVIEMGLLKLDNAYKFPNLRCRGWACRTNLPSNTALRGFGFPQAGLVTEACITEVAIKCGLSPEQVRTINMYKHVDTTHYKQEFSAKALSECWRECMAKCSYFERKAAIGKFNAENSWKKRGMAVIPLKFPVGIGSVAMGQAAALVHIYLDGSALVSHGGIEMGQGVHTKMIQVVSRELRMPMSSVHLRGTSTETVPNTNASGGSVVADLNGLAVKDACQTLLKRLEPIISKNPQGTWKDWAQTAFDQSISLSAVGYFRGYESNIDWEKGEGHPFEYFVFGAACSEVEINCLTGDHKNIRTNIVMDVGHSINPALDIGQVEGAFIQGMGLYTIEELSYSPQGTLYSRGPNQYKIPAICDIPTEMHISFLPPSEHSNTLYSSKGLGESGVFLGCSVFFAIHDAVKAARQERGISGPWKLNSPLTPEKIRMACEDKFTKMIPRDEPGSYVPCNIPV
# notes: recombinant from E. coli TP1000 (codon-optimized plasmid pMAOX1co), Ni-NTA and Superdex 200 purified, chemically sulfurated, dimer (300 kDa)
# B3: mAOX4 (Mus musculus) (protein)
# chain: MPSVSESDELIFFVNGKKVIEKNPDPEKNLLFYTRKVLNLTGTKYSCGTGGCGACTVMVSRYNPKTRKIHHYPATACLVPICWLHGAAITTVEGVGSIKKRVHPVQERLAKCHGTQCGFCSPGMVMSIYTLLRNHPEPTPDQITEALGGNLCRCTGYRPIVESGKTFSQKSTVCQMKGSGKCCMDPDEKCLESREKKMCTKLYNEDEFQPFDPSQEPIFPPELIRMAEDPNKRRLTFQGKRTTWIIPVTLNDLLELKASYPEAPLVMGNTTVGPGIKFNDEFYPVFISPLGVPELNLMDTTNNGVTIGAGYSLAQLKDTLDFLVSEQPKEKTKTFHALQKHLRTLAGPQIRNMATLGGHTASRPNFSDLNPILAAGNATINVVSREGKDRQLPLNGPFLEKLPEADLKPEEVILSIFIPYTAQWQFVSGLRLAQRQENAFAIVNAGMSVEFEEGTNTIKDLKMFFGSVAPTVVSASQTCKQLIGRQWDDQMLSDACQLVLQEIRIPPDAEGGMVEYRRTLIISLLFKFYLKVQRWLNEMDPQKFPDIPGKFVSALDDFPIETPQGIQMFQCVDPKQPQKDPVGHPIMHQSGIKHATGEAIFIDDMPPIDQELCLAVVTSTRAHAKITSLDVSEALACPGVVDVITAEDVPGENDHNGEILYAQSEVICVGQIICTVAADTYIHAKEAAKRVKIAYDDIEPTIITIEEALEHNSFLSPEKKIEQGNVDYAFKHVDQIVEGEIHVEGQEHFYMETQTILAIPQTEDKEMVLHLGTQFPTHVQEFVSAALNVPRSRIACHMKRAGGAFGGKVTKPALLGAVCAVAANKTGRPIRFILERSDDMLITAGRHPLLGKYKIGFMNNGEIRAADVEYYTNGGCTPDESELVIEFVVLKSENTYHIPNFRCRGRACKTNLPSNTAFRGFGFPQATVVVEAYIAAVASKCNLLPEEVREINMYKKTSKTAYKQTFNPEPLRRCWKECLEKSSFFARKKAAEEFNGNNYWKKRGLAVVPMKFSVAVPIAFYNQAAALVHIFLDGSVLLTHGGCELGQGLHTKMIQVASRELNVPKSYVHFSETSTTTVPNSAFTAGSMGADINGKAVQNACQILMDRLRPIIRKNPKGKWEEWIKMAFEESISLSATGYFKGYQTNMDWKKEEGDPYPYYVYGAACSEVEVDCLTGAHKLLRTDIFVDAAFSINPALDIGQVEGAFIQGMGFYTTEELKYSPKGVLYSRGPEDYKIPTITEIPEEFYVTLVHSRNPIAIYSSKGLGEAGMFLGSSVLFAIYDAVTTARKERGLSDIFPLNSPATPEVIRMACTDQFTEMIPRDDPSTFTPWSIHVS
# notes: recombinant from E. coli TP1000 (plasmid pMAOX4), Ni-NTA and Superdex 200 purified, chemically sulfurated, dimer (300 kDa)
# B4: mAOX2 (Mus musculus) (protein)
# chain: MPCPAQISDDLEFFVNGRKVTEKNVDPEVTLLAFLRKNLCLTGTKDACGTGGCGACTVMVSQHDPVCKKTRHFSVMACLVPLCSLHGAAVTTVEGVGSIKTRLHPVQERIAKSHGTQCGFCTPGMVMSIYTLLRNHPQPSEEQLMEALGGNLCRCTGYRPILESGRTFCMEPDGCPQKGTGQCCLDQKESDSSGSKSDICTKLFVKDEFQPLDPTQELIFPPELLRMAENPEKQTLTFYGERITWIAPGTLQELLVLKAKYPEAPLISGNTALGPAMKSQGHFYPVLLSPARIPDLRMVTKTSGGLTIGACCSLAQVKDILAESISELPQEKTQTYRALLKHLRSLAGQQIRNMASLGGHVISRHCYSDLNPILSVGNTTLNLLSEEGPRQIPLSGHFLAGLASADLKPEEILGSVYIPHSQKREFVSAFRQAQCHQNALPDVNAGMRVLFREGTDVIEELSIAYGGVGPTTVSAQRSCQQLLGRRWNALMLDEACRLLLDEVSLPGSALGGKVEFRRTLIVSLFFKFYLEVLQELKADQKLPPESTDSQRYPEIADRFLSSLGDFQVTLPRGVQTYQRVDSHQPLQDPVGRPIMHLSGLKHATGEAVFCDDIPRVDKELFMALVTSTRAHARIISIDSSEVLDLPGVVDVITAEDIPGNNGEEDDKLLAVDKVLCVGQVICAVVAETDVQAKRATEKIKITYEDLKPVIFTIEDAIKHNSFLCPEKKLEQGNIEEAFENVDQVAEGTVHVGGQEHFYMETQRVLVIPKTEDKELDMYVSTQDPAHVQKTVSSTLNIPISRITCHVKRVGGGFGGKVGRPAVFGAIAAVGAVKTGHPIRLVLDREDDMLITGGRHPLFAKYKVGFMNSGRIKALDIECYINGGCTLDDSELVTEFLVLKLENAYKIRNLRLRGRACMTNLPSNTAFRGFGFPQGALVTESCITAVAAKCGLPPEKIREKNMYKTVDKTIYKQAFNPDPLIRCWNECLDKSSFHIRRTRVDEFNKKSYWKKRGIAIVPMKFSVGFAATSYHQAAALVHIYTDGSVLVAHGGNELGQGIHTKMLQVASRELKIPLSYLHICETSTTTVPNTIATAASVGADVNGRAVQNACQILLKRLEPVIKKNPEGTWRDWIEAAFEKRISLSATGYFRGYKAFMDWEKGEGDPFPYYVYGAACSEVEIDCLTGAHKKIRTDIVMDACCSLNPAIDIGQIEGAFIQGMGLYTTEELLYSPEGVLYSRSPDKYKIPTVTDVPEQFNVSLLPSSQTPLTLYSSKGLGESGMFLGSSVFFAIVDAVAAARRQRDIAEDFTVKSPATPEWVRMACADRFTDMIPRDDPKTFKPWSIPIA
# notes: recombinant from E. coli TP1000 (codon-optimized plasmid pMAOX2co), Ni-NTA and Superdex 200 purified, chemically sulfurated, dimer (300 kDa)
# Legend:
# Experiment in all cases: purified protein
# Details in all cases: 100 μM DCPIP as electron acceptor, 50 mM Tris-HCl, 1 mM EDTA, pH 8.0, 37°C, corrected to 100% Mo saturation
# purified protein [1] = substrate: c1ccc2c(c1)cnc1ccccc12
# purified protein [2] = substrate: O=Cc1ccccc1; type: biochemical, Mus musculus
# purified protein [3] = substrate: c1ncc2[nH]cnc2n1; type: biochemical, Mus musculus
# purified protein [4] = substrate: CC=O; type: biochemical, Mus musculus
# purified protein [5] = substrate: COc1ccccc1C=O; type: biochemical, Mus musculus
# purified protein [6] = substrate: CCCCC=O; type: biochemical, Mus musculus
# purified protein [7] = substrate: O=Cc1ccccc1O; type: biochemical, Mus musculus
# purified protein [8] = substrate: c1ccc2cnncc2c1; type: biochemical, Mus musculus
Protein,Km (purified protein [1]),kcat (purified protein [1]),Km (purified protein [2]),kcat (purified protein [2]),Km (purified protein [3]),kcat (purified protein [3]),Km (purified protein [4]),Km (purified protein [5]),kcat (purified protein [5]),Km (purified protein [6]),kcat (purified protein [6]),kcat/Km (purified protein [6]),kcat/Km (purified protein [2]),Km (purified protein [7]),kcat (purified protein [7]),kcat/Km (purified protein [7]),Km (purified protein [8]),kcat (purified protein [8]),kcat/Km (purified protein [8])
B1,10.8 ± 1.8 µM,141.2 ± 5.5 min⁻¹,0.8 ± 0.1 µM,150.7 ± 3.6 min⁻¹,3.181 ± 0.334 mM,471.7 ± 17.9 min⁻¹,,,,,,,,,,,,,
B2,2.5 ± 1.1 µM,120.8 ± 16.6 min⁻¹,,,9.028 ± 0.971 mM,428.8 ± 17.4 min⁻¹,18 mM,6.6 ± 1.5 µM,413.1 ± 21.7 min⁻¹,,,,,,,,,,
B3,,,2.2 ± 0.2 µM,91.5 ± 2.3 min⁻¹,12.344 mM,,,,,48.3 ± 8.7 µM,2.8 ± 0.22 s⁻¹,58300 M⁻¹ s⁻¹,693000 M⁻¹ s⁻¹,13.2 ± 2.4 µM,3.42 ± 0.112 s⁻¹,260000 M⁻¹ s⁻¹,8.3 ± 0.9 µM,5.51 ± 0.142 s⁻¹,665000 M⁻¹ s⁻¹
B4,1.9 ± 0.3 µM,117.7 ± 4.9 min⁻¹,,,0.2984 mM,,,,,,,,,,,,,,
